Data: US20130109581A1, “POSITIVELY CHARGED SPECIES AS BINDING REAGENTS IN THE SEPARATION OF PROTEIN AGGREGATES FROM MONOMERS” (priority 2009, published 2013)

Legend:
Abeta 1-40 monomer = Abeta 1-40 monomer (UniProt P05067); assay: MPA bead capture, Abeta 1-40 read-out of the CSF sample (noise)
[1] = target: Abeta (1-42) aggregates from Alzheimer's Disease Brain Homogenate (human) (UniProt P05067); assay: MPA, AD brain homogenate in CSF, Abeta(1-42) ELISA
[2] = target: Abeta (1-42) aggregates from Alzheimer's Disease Brain Homogenate (human) (UniProt P05067); assay: MPA, AD brain homogenate in plasma, Abeta(1-42) ELISA
Abeta 1-42 globulomer [3] = target: Abeta 1-42 globulomer (UniProt P05067); assay: 42 (globulomer) RLU over 40 (Abeta 1-40 monomer) RLU
Abeta 1-42 globulomer [4] = target: Abeta 1-42 globulomer (UniProt P05067); assay: MPA bead capture, CSF + 1 ng/mL globulomer, Abeta immunoassay

average RLU (40) (Abeta 1-40 monomer) [RLU]	Substance	further results
134	AAAKAA (peptide)	–
198	link-FKFKKK (peptide)	–
254	link-kkkfkf (peptide)	42:40 ratio (Abeta 1-42 globulomer [3]): 6.3; average RLU (42) (Abeta 1-42 globulomer [4]): 1600 RLU

Further lines, the substance ahead of its results:

Substance	average RLU (40) (Abeta 1-40 monomer) [RLU]	further results
AKKKKK (peptide)	176	–
peptoid +++++++	–	limit of detection [1]: 1.6 mL/assay; limit of detection [2]: 2.5 mL/assay
AAKKAA (peptide)	147	–
DFKLNFKF (peptide)	260	–
link-KKKFKF (peptide)	279	–
